B1: TSN (parent)
chain: FLAAEQDIREEIRKVVQSLEQTAR
B2: BRF1 (parent)
chain: CTACGSVLEDNIIVSEVQFVESSG

Variants of: B1
Assay: protein stability index of a GFP-peptide fusion (GPS, HEK-293T) (PSI 1-6); higher = more stable
Conditions: c terminus: a fixed tail appended
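Further: lentivirally expressed fusions sorted by FACS into six bins by GFP to DsRed ratio, PSI derived from sequencing read proportions per bin multiplied by bin number.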

Variant	protein stability index
NLAAEQDIREEIRKVVQSLEQTAR [F1N]	3.17
KLAAEQDIREEIRKVVQSLEQTAR [F1K]	2.41
YLAAEQDIREEIRKVVQSLEQTAR [F1Y]	2.04
GLAAEQDIREEIRKVVQSLEQTAR [F1G]	2.26
TLAAEQDIREEIRKVVQSLEQTAR [F1T]	2.72
ILAAEQDIREEIRKVVQSLEQTAR [F1I]	2.51
DLAAEQDIREEIRKVVQSLEQTAR [F1D]	2.49
HLAAEQDIREEIRKVVQSLEQTAR [F1H]	2.5
PLAAEQDIREEIRKVVQSLEQTAR [F1P]	2.78
SLAAEQDIREEIRKVVQSLEQTAR [F1S]	2.51
ALAAEQDIREEIRKVVQSLEQTAR [F1A]	2.35
RLAAEQDIREEIRKVVQSLEQTAR [F1R]	2.79
CLAAEQDIREEIRKVVQSLEQTAR [F1C]	1.9
ELAAEQDIREEIRKVVQSLEQTAR [F1E]	2.45
MLAAEQDIREEIRKVVQSLEQTAR [F1M]	2.39
VLAAEQDIREEIRKVVQSLEQTAR [F1V]	2.62
QLAAEQDIREEIRKVVQSLEQTAR [F1Q]	2.23
WLAAEQDIREEIRKVVQSLEQTAR [F1W]	1.85
LLAAEQDIREEIRKVVQSLEQTAR [F1L]	2.36

Variant	protein stability index
FLPAEQDIREEIRKVVQSLEQTAR [A3P]	2.17
FLGAEQDIREEIRKVVQSLEQTAR [A3G]	1.87
FLKAEQDIREEIRKVVQSLEQTAR [A3K]	2.13
FLRAEQDIREEIRKVVQSLEQTAR [A3R]	2.56
FLFAEQDIREEIRKVVQSLEQTAR [A3F]	2.02
FLTAEQDIREEIRKVVQSLEQTAR [A3T]	2
FLVAEQDIREEIRKVVQSLEQTAR [A3V]	1.88
FLCAEQDIREEIRKVVQSLEQTAR [A3C]	1.36
FLDAEQDIREEIRKVVQSLEQTAR [A3D]	2.38
FLSAEQDIREEIRKVVQSLEQTAR [A3S]	2.5
FLLAEQDIREEIRKVVQSLEQTAR [A3L]	2.33
FLIAEQDIREEIRKVVQSLEQTAR [A3I]	1.87
FLWAEQDIREEIRKVVQSLEQTAR [A3W]	1.5
FLHAEQDIREEIRKVVQSLEQTAR [A3H]	2.1
FLEAEQDIREEIRKVVQSLEQTAR [A3E]	2.42
FLMAEQDIREEIRKVVQSLEQTAR [A3M]	1.72
FLNAEQDIREEIRKVVQSLEQTAR [A3N]	1.88
FLQAEQDIREEIRKVVQSLEQTAR [A3Q]	1.73
FVAAEQDIREEIRKVVQSLEQTAR [L2V]	1.91

Variant	protein stability index
FNAAEQDIREEIRKVVQSLEQTAR [L2N]	2.38
FFAAEQDIREEIRKVVQSLEQTAR [L2F]	1.71
FHAAEQDIREEIRKVVQSLEQTAR [L2H]	1.75
FAAAEQDIREEIRKVVQSLEQTAR [L2A]	2.19
FQAAEQDIREEIRKVVQSLEQTAR [L2Q]	2.03
FSAAEQDIREEIRKVVQSLEQTAR [L2S]	1.91
FGAAEQDIREEIRKVVQSLEQTAR [L2G]	3.19
FWAAEQDIREEIRKVVQSLEQTAR [L2W]	2.02
FTAAEQDIREEIRKVVQSLEQTAR [L2T]	2.08
FRAAEQDIREEIRKVVQSLEQTAR [L2R]	2.4
FPAAEQDIREEIRKVVQSLEQTAR [L2P]	2.68
FDAAEQDIREEIRKVVQSLEQTAR [L2D]	1.73
FCAAEQDIREEIRKVVQSLEQTAR [L2C]	1.82
FYAAEQDIREEIRKVVQSLEQTAR [L2Y]	1.85
FEAAEQDIREEIRKVVQSLEQTAR [L2E]	1.68
FKAAEQDIREEIRKVVQSLEQTAR [L2K]	2.11
FMAAEQDIREEIRKVVQSLEQTAR [L2M]	1.96
FIAAEQDIREEIRKVVQSLEQTAR [L2I]	1.66

Variants of: B2
Assay: as above
Conditions: c terminus: a fixed tail appended

Variant	protein stability index
CTACGSVLEDNIIVSEVQFVESQG [S23Q]	3.55
CTACGSVLEDNIIVSEVQFVESAG [S23A]	3.14
CTACGSVLEDNIIVSEVQFVESNG [S23N]	3.15
CTACGSVLEDNIIVSEVQFVESHG [S23H]	3.24
CTACGSVLEDNIIVSEVQFVESCG [S23C]	2.9
CTACGSVLEDNIIVSEVQFVESKG [S23K]	4.04
CTACGSVLEDNIIVSEVQFVESTG [S23T]	3.17
CTACGSVLEDNIIVSEVQFVESEG [S23E]	2.91
CTACGSVLEDNIIVSEVQFVESFG [S23F]	2.42
CTACGSVLEDNIIVSEVQFVESLG [S23L]	3.03
CTACGSVLEDNIIVSEVQFVESMG [S23M]	2.81
CTACGSVLEDNIIVSEVQFVESWG [S23W]	2.53
CTACGSVLEDNIIVSEVQFVESIG [S23I]	2.88
CTACGSVLEDNIIVSEVQFVESVG [S23V]	2.63
CTACGSVLEDNIIVSEVQFVESPG [S23P]	2.72
CTACGSVLEDNIIVSEVQFVESYG [S23Y]	2.51
CTACGSVLEDNIIVSEVQFVESSH [G24H]	2.25
CTACGSVLEDNIIVSEVQFVESSK [G24K]	3.25
CTACGSVLEDNIIVSEVQFVESSI [G24I]	3.06

Variant	protein stability index
CTACGSVLEDNIIVSEVQFVESSV [G24V]	2.45
CTACGSVLEDNIIVSEVQFVESSQ [G24Q]	2.95
CTACGSVLEDNIIVSEVQFVESSC [G24C]	3.09
CTACGSVLEDNIIVSEVQFVESSN [G24N]	3.01
CTACGSVLEDNIIVSEVQFVESSE [G24E]	3.58
CTACGSVLEDNIIVSEVQFVESSY [G24Y]	2.89
CTACGSVLEDNIIVSEVQFVESSW [G24W]	2.09
CTACGSVLEDNIIVSEVQFVESSL [G24L]	3.01
CTACGSVLEDNIIVSEVQFVESSM [G24M]	3.13
CTACGSVLEDNIIVSEVQFVESSA [G24A]	3.67
CTACGSVLEDNIIVSEVQFVESSD [G24D]	3.38
CTACGSVLEDNIIVSEVQFVESSP [G24P]	3.28
CTACGSVLEDNIIVSEVQFVESSF [G24F]	2.03
CTACGSVLEDNIIVSEVQFVESSS [G24S]	3.08
CTACGSVLEDNIIVSEVQFVESSR [G24R]	2.64
CTACGSVLEDNIIVSEVQFVEYSG [S22Y]	2.38
CTACGSVLEDNIIVSEVQFVEVSG [S22V]	2.75
CTACGSVLEDNIIVSEVQFVETSG [S22T]	2.33
CTACGSVLEDNIIVSEVQFVEWSG [S22W]	2.66

Reference: the supplement of paper PMC10567573
